Data: the Immune Epitope Database (IEDB)

Assays:
Assay in all cases: IEDB peptide-MHC binding, purified MHC/direct/fluorescence; filed as Kd, often an IC50 or EC50 that approximates it; ≥ and ≤ were set here for values at or beyond the usual limits of such assays
HLA-A*03:01 = settings: source organism: Salmonella enterica
HLA-B*57:01 = settings: source organism: Salmonella enterica
HLA-B*51:01 = settings: source organism: Salmonella enterica subsp. enterica serovar Typhimurium str. LT2
HLA-B*46:01 = settings: source organism: Salmonella enterica
HLA-A*02:11 = settings: source organism: Salmonella enterica subsp. enterica serovar Typhimurium str. LT2
HLA-A*02:10 = settings: source organism: Salmonella enterica subsp. enterica serovar Typhimurium str. LT2
HLA-A*29:02 = settings: source organism: Salmonella enterica subsp. enterica serovar Typhimurium str. LT2
HLA-A*11:01 = settings: source organism: Salmonella enterica
HLA-A*01:01 = settings: source organism: Salmonella enterica
HLA-B*40:01 = settings: source organism: Salmonella enterica
HLA-B*08:01 = settings: source organism: Salmonella enterica subsp. enterica serovar Typhimurium str. LT2
HLA-A*02:12 = settings: source organism: Salmonella enterica subsp. enterica serovar Typhimurium str. LT2
HLA-B*39:01 = settings: source organism: Salmonella enterica subsp. enterica serovar Typhimurium str. LT2
HLA-A*69:01 = settings: source organism: Salmonella enterica
HLA-B*27:05 = settings: source organism: Salmonella enterica
HLA-B*38:01 = settings: source organism: Salmonella enterica subsp. enterica serovar Typhimurium str. LT2
HLA-B*18:01 = settings: source organism: Salmonella enterica subsp. enterica serovar Typhimurium str. LT2
HLA-A*02:50 = settings: source organism: Salmonella enterica subsp. enterica serovar Typhimurium str. LT2
HLA-B*58:01 = settings: source organism: Salmonella enterica
HLA-A*31:01 = settings: source organism: Salmonella enterica
HLA-A*02:19 = settings: source organism: Salmonella enterica subsp. enterica serovar Typhimurium str. LT2
HLA-A*02:01 = settings: source organism: Salmonella enterica
HLA-B*48:01 = settings: source organism: Salmonella enterica
HLA-B*08:02 = settings: source organism: Salmonella enterica subsp. enterica serovar Typhimurium str. LT2
HLA-A*23:01 = settings: source organism: Salmonella enterica subsp. enterica serovar Typhimurium str. LT2

## FPASHMATY
HLA-A*03:01
  Kd: ≥ 20 µM
HLA-B*57:01
  Kd: ≥ 20 µM
HLA-B*51:01
  Kd: ≥ 20 µM
HLA-B*46:01
  Kd: 9 µM
HLA-A*02:11
  Kd: ≥ 20 µM
HLA-A*02:10
  Kd: ≥ 20 µM
HLA-A*29:02
  Kd: 0.114 µM
HLA-A*11:01
  Kd: ≥ 20 µM
HLA-A*01:01
  Kd: ≥ 20 µM
HLA-B*40:01
  Kd: ≥ 20 µM
HLA-B*08:01
  Kd: ≥ 20 µM
HLA-A*02:12
  Kd: ≥ 20 µM
HLA-B*39:01
  Kd: ≥ 20 µM
HLA-A*69:01
  Kd: ≥ 20 µM
HLA-B*27:05
  Kd: ≥ 20 µM
HLA-B*38:01
  Kd: ≥ 20 µM
HLA-B*18:01
  Kd: 0.007 µM
HLA-A*02:50
  Kd: ≥ 20 µM
HLA-B*58:01
  Kd: ≥ 20 µM
HLA-A*31:01
  Kd: ≥ 20 µM
HLA-A*02:19
  Kd: ≥ 20 µM
HLA-A*02:01
  Kd: ≥ 20 µM
HLA-B*48:01
  Kd: ≥ 20 µM
HLA-B*08:02
  Kd: ≥ 20 µM
HLA-A*23:01
  Kd: ≥ 20 µM
